T1: TRB5 (Arabidopsis thaliana (Col-0), UniProt F4IEY4 1-287)
T1 sequence: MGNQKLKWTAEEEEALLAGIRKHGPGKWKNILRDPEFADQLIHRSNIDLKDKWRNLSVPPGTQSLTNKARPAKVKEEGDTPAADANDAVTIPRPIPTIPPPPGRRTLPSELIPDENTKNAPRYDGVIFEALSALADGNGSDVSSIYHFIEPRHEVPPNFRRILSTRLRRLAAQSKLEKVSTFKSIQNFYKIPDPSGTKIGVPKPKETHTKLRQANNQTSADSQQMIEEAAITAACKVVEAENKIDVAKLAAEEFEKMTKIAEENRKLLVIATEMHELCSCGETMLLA

T2: TRB4 (Arabidopsis thaliana, UniProt F4I7L1 1-296)
T2 sequence: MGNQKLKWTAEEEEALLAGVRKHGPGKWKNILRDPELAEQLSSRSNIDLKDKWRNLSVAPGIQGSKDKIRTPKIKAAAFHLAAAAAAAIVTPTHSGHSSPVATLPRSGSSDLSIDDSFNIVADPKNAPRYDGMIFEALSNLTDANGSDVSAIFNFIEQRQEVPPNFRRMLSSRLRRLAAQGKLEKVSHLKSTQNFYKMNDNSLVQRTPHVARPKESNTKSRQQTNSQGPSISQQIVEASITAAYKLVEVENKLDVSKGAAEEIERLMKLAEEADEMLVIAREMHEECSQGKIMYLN

T3: TRB1 (Arabidopsis thaliana, UniProt Q8VWK4 1-300)
T3 sequence: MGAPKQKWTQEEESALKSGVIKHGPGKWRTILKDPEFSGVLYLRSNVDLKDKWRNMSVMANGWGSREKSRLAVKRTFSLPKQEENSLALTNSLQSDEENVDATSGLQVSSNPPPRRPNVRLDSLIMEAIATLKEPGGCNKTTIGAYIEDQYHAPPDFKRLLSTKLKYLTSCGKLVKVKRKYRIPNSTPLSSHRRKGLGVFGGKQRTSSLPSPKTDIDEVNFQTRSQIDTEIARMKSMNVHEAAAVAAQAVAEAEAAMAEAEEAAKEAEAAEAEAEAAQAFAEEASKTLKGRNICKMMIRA


Tests used:
TRB5 [1] = molecular target: T1, TRB5; test: EMSA; non-telomeric competitor 1-100x; 10 mM Tris-HCl pH 8.0, 1 mM EDTA, 1 mM DTT, 50 mM NaCl, 5% glycerol; 10 pmol protein, 1 pmol probe, on ice 20 min; 7.5% PAGE, 0.5x TBE, 15 C; details: protein: recombinant; tags: His-tag (pHGWA); chain copies: 2; label: 32P 5'-end; blunt
TRB4 [2] = molecular target: T2, TRB4; test: as above; details: protein: recombinant; tags: His-tag (pHGWA); chain copies: 2; label: 32P 5'-end; blunt
TRB5 [3] = molecular target: T1, TRB5; test: EMSA; high-molecular-weight complex not entering the gel; resists 100x non-telomeric competitor; 10 mM Tris-HCl pH 8.0, 1 mM EDTA, 1 mM DTT, 50 mM NaCl, 5% glycerol; 10 pmol protein, 1 pmol probe, on ice 20 min; 7.5% PAGE, 0.5x TBE, 15 C; details: protein: recombinant; tags: His-tag (pHGWA); chain copies: 2; label: 32P 5'-end; blunt
TRB4 [4] = molecular target: T2, TRB4; test: as above; details: protein: recombinant; tags: His-tag (pHGWA); chain copies: 2; label: 32P 5'-end; blunt
TRB1 = molecular target: T3, TRB1; test: as above; details: protein: recombinant; tags: His-tag (pHGWA); label: 32P 5'-end; blunt

Binder	binding result (TRB5 [1])	binding result (TRB4 [2])	binding result (TRB5 [3])	binding result (TRB4 [4])	binding result (TRB1)
telo-box (dsDNA) DNA 1: TTTTTCACGAAAACCCTAATCGCAGTCG DNA 2: CGACTGCGATTAGGGTTTTCGTGAAAAA	binds	binds			
telomeric (four plant telomeric repeats) (dsDNA) DNA 1: AAACCCTAAACCCTAAACCCTAAACCCT DNA 2: AGGGTTTAGGGTTTAGGGTTTAGGGTTT			binds	binds	binds
